Laboratory results taken from IntAct's records for PubMed 10887173.

B1: 14-3-3 protein zeta/delta (Homo sapiens), P63104 (parent)
chain: MDKNELVQKAKLAEQAERYDDMAACMKSVTEQGAELSNEERNLLSVAYKNVVGARRSSWRVVSSIEQKTEGAEKKQQMAREYREKIETELRDICNDVLSLLEKFLIPNASQAESKVFYLKMKGDYYRYLAEVAAGDDKKGIVDQSQQAYQEAFEISKKEMQPTHPIRLGLALNFSVFYYEILNSPEKACSLAKTAFDEAIAELDTLSEESYKDSTLIMQLLRDNLTLWTSDTQGDEAEAGEGGEN

Variants of: B1
Conditions: with vime_chlae VIM
E5K;L12Q;A13Q;E14R;Y82Q;K85N;E87Q was tested, and the “effect of a mutation on the interaction” value was “decreasing interaction”.
